Each block holds one molecule with its values, some of them ahead of it.
T1: human plasma-derived complement C4 binding protein (C4BP; manufactured by BioMed) (human, UniProt P04003 49-597; P20851 18-252)
T1 construct: mature; Bought plasma protein; also called Human C4BP
T1 sequence (looked up) 1: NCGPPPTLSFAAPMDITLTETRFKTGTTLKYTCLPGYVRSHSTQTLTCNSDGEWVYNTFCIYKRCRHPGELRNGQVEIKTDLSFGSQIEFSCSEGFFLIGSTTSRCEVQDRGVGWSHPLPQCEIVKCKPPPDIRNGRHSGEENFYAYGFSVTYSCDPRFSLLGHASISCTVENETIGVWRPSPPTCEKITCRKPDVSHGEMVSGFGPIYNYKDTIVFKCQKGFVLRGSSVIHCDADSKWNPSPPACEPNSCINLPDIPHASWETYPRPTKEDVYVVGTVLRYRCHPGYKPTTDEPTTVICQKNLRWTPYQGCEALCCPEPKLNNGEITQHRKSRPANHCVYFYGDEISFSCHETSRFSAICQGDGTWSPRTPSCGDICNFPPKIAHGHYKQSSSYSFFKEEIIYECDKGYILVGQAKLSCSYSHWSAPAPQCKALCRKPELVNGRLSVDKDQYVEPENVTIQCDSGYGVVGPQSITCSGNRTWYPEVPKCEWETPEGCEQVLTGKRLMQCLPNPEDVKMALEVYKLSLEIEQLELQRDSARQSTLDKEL
T1 sequence (looked up) 2: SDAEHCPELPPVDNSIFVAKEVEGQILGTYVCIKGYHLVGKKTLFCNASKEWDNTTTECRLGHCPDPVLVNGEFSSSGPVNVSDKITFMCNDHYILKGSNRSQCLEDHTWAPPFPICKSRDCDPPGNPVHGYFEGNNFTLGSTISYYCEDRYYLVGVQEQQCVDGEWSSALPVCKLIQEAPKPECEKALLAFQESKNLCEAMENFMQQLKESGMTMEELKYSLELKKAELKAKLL

B1: MSPS, purified recombinant human Protein S obtained from FUT8 knockout CHO/DG44 cells (other)
chain: ANSLLEETKQGNLERECIEELCNKEEAREVFENDPETDYFYPKYLVCLRSFQTGLFTAARQSTNAYPDLRSCVNAIPDQCSPLPCNEDGYMSCKDGKASFTCTCKPGWQGEKCEFDINECKDPSNINGGCSQICDNTPGSYHCSCKNGFVMLSNKKDCKDVDECSLKPSICGTAVCKNIPGDFECECPEGYRYNLKSKSCEDIDECSENMCAQLCVNYPGGYTCYCDGKKGFKLAQDQKSCEVVSVCLPLNLDTKYELLYLAEQFAGVVLYLKFRLPEISRFSAEFDFRTYDSEGVILYAESIDHSAWLLIALRGGKIEVQLKNEHTSKITTGGDVINNGLWNMVSVEELEHSISIKIAKEAVMDINKPGPLFKPENGLLETKVYFAGFPRKVESELIKPINPRLDGCIRSWNLMKQGASGIKEIIQEKQNKHCLVTVEKGSYYPGSGIAQFHIDYNNVSSAEGWHVNVTLNIRPSTGTGVMLALVSGNNTVPFAVSLVDSTSEKSQDILLSVENTVIYRIQALSLCSDQQSHLEFRVNRNNLELSTPLKIETISHEDLQRQLAVLDKAMKAKVATYLGGLPDVPFSATPVNAFYNGCMEVNINGVQLDLDEAISKHNDIRAHSCPSVWKKTKNS
modifications: gamma-carboxylated glutamic acid (Gla) in the Gla domain; complex type N-glycoside-linked sugar chains without fucose (fucose not detected)
notes: It differs from KCPS only in glycosylation (no core fucose); also called fucose-free recombinant Protein S
B2: human plasma-derived Protein S (manufactured by Calbiochem) (other)
chain: B1 chain
modifications: gamma-carboxylated glutamic acid (Gla) in the N-terminal Gla domain; complex type N-glycoside-linked sugar chains (Asn458, Asn468, Asn489), partly with core alpha1,6-fucose (Fuc 0.26 per Man 3.00)
notes: Bought protein purified from human plasma; also called native Protein S; Human plasma Protein S
B3: KCPS, purified recombinant human Protein S obtained from CHO/DG44 cells (other)
chain: B1 chain
modifications: gamma-carboxylated glutamic acid (Gla) in the Gla domain; complex type N-glycoside-linked sugar chains with fucose (Fuc 0.69 per Man 3.00)
notes: It differs from MSPS only in glycosylation (highest core fucose ratio)
B4: Lens culinaris agglutinin (LCA) lectin (manufactured by Vector Laboratories) (other)
chain 1: TETTSFSITKFSPDQKNLIFQGDGYTTKGKLTLTKAVKSTVGRALYSTPIHIWDRDTGNVANFVTSFTFVIDAPSSYNVADEFTFFIAPVDTKPQTGGGYLGVFNSKEYDKTSQTVAVEFDTFYNAAWDPSNKERHIGIDVNSIKSVNTKSWNLQNGERANVVIAFNAATNVLTVTLTYP
chain 2: VTSYTLNEVVPLKDVVPEWVRIGFSATTGAEFAAHEVHSWSFHSELGGTSSS
notes: A lectin; also called lentil lectin
B5: recombinant human CD14 protein (manufactured by R&D systems) (receptor, UniProt P08571 20-352, looked up)
chain: TTPEPCELDDEDFRCVCNFSEPQPDWSEAFQCVSAVEVEIHAGGLNLEPFLKRVDADADPRQYADTVKALRVRRLTVGAAQVPAQLLVGALRVLAYSRLKELTLEDLKITGTMPPLPLEATGLALSSLRLRNVSWATGRSWLAELQQWLKPGLKVLSIAQAHSPAFSCEQVRAFPALTSLDLSDNPGLGERGLMAALCPHKFPAIQNLALRNTGMETPTGVCAALAAAGVQPHSLDLSHNSLRATVNPSAPRCMWSSALNSLNLSFAGLEQVPKGLPAKLRVLDLSCNRLNRAPQPDELPEVDNLTLDGNPFLVPGTALPHEGSMNSGVVPAC
notes: Bought

Key:
[1] = molecular target: MSPS, purified recombinant human Protein S obtained from FUT8 knockout CHO/DG44 cells (human) (UniProt P07225); experiment: SPR (Biacore T100), MSPS immobilised on CM5, C-17 as analyte
[2] = molecular target: KCPS, purified recombinant human Protein S obtained from CHO/DG44 cells (human) (UniProt P07225); experiment: SPR (Biacore T100), KCPS immobilised on CM5, C-17 as analyte
[3] = molecular target: human plasma-derived Protein S (manufactured by Calbiochem) (human) (UniProt P07225); experiment: SPR (Biacore T100), Protein S immobilised on CM5, C-17 as analyte
[4] = molecular target: T1, human plasma-derived complement C4 …; experiment: SPR (Biacore T100), MSPS immobilised on CM5, C4BP as analyte
Text: (§1) Using an amine coupling kit (manufactured by Biacore), human plasma-derived Protein S (manufactured by Calbiochem), and recombinant human Protein S prepared in Example 4, MSPS and KCPS were respectively immobilized on flow cells of a CM5 sensor chip (manufactured by Biacore). An immobilized amount of the ligand protein on the respective flow cells was set to the range of 1500 to 2000 RU. Then, an anti-human Protein S antibody C-17 (manufactured by Santa Cruz) (FIG. 7), or a human plasma-derived complement C4 binding protein (manufactured by BioMed) diluted to given concentrations (50000, 25000, 12500, 6250, 3125, and 1562 ng/mL) using HBS-EP+buffer (manufactured by Biacore), as an analyte, was allowed to run and bind to the ligand-immobilized flow cells at a temperature of 25° C., a flow rate of 5 μL/min, association time of 140 seconds, and dissociation time of 240 seconds. The anti-human Protein S antibody C-17 and the human plasma-derived complement C4 binding protein are known to bind to the sex hormone-binding globulin-like domain (SHBG domain) at the carboxyl terminal of Protein S. The chip was regenerated by a flow of an aqueous glycine solution (pH 1.5) (manufactured by Biacore) for 60 seconds. Dissociation constants calculated by analysis of the obtained data using Biacore T100 evaluation software ver 1.1 (manufactured by Biacore) are given in Table 2 below.

[5] = molecular target: T2, recombinant human RAGE-Fc fusion protein (manufactured by R&D Systems) (human, UniProt Q15109 24-344); experiment: SPR (Biacore T100), Protein S immobilised on CM5, RAGE-Fc as analyte
T2 construct: Bought fusion protein; also called recombinant soluble RAGE-human IgG1 Fc chimeric protein; not shown: Fc of human IgG1
T2 sequence (Q15109 24-344 limits assumed): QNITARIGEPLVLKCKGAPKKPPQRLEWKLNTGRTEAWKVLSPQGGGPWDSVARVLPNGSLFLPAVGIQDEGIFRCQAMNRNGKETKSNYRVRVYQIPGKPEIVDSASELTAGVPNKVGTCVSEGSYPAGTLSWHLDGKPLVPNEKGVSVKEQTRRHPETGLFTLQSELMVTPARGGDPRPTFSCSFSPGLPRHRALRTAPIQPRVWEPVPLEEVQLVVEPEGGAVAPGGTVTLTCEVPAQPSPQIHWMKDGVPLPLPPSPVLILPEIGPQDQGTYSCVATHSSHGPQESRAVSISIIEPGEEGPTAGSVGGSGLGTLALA

[6] = molecular target: T1, human plasma-derived complement C4 …; experiment: SPR (Biacore T100), Protein S immobilised on CM5, C4BP as analyte
Text: as §1

[7] = molecular target: T1, human plasma-derived complement C4 …; experiment: SPR (Biacore T100), KCPS immobilised on CM5, C4BP as analyte
Text: as §1

[8] = molecular target: T3, human plasma-derived antithrombin III (manufactured by Calbiochem) (human, UniProt P01008 33-464, four asparagine-linked sugar chains without core alpha1,6-fucose); experiment: SPR (Biacore T100), antithrombin III immobilised on CM5 chip, LCA as analyte
T3 construct: mature; Bought plasma protein; also called human plasma antithrombin III
T3 sequence (P01008 33-464): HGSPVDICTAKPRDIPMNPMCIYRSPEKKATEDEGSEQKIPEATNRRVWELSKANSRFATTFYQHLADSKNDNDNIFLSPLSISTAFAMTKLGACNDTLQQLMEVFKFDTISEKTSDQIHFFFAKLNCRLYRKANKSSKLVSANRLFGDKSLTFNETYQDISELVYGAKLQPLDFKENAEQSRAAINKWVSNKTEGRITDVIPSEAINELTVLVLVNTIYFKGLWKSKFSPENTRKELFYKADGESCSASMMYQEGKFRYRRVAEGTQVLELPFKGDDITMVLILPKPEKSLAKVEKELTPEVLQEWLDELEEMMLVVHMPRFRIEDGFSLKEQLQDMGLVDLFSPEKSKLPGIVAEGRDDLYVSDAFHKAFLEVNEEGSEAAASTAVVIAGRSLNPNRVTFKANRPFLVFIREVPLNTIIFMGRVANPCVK
Protocol: The abscissa represents time (seconds), and the ordinate represents a binding activity of LCA to a glycoprotein on a sensor chip of Biacore T100. From the top, each sensorgram represents a value obtained when LCA was allowed to run at concentrations of 50000, 25000, 12500, 6250, 3125 and 0 ng/mL. The top represents the binding between human plasma Protein S and LCA, and the bottom represents the binding between human plasma antithrombin III and LCA.
Next, in order to analyze the binding mode of fucose added to the sugar chain of the human plasma-derived Protein S, the binding between core α1,6-fucose-specific lectin, Lens culinaris agglutinin (LCA) lectin and Protein S was analyzed by surface plasmon resonance. Using an amine coupling kit (manufactured by Biacore), human plasma-derived Protein S (manufactured by Calbiochem) and human plasma-derived antithrombin III (manufactured by Calbiochem) were respectively immobilized on flow cells of a CM5 sensor chip (manufactured by Biacore). The human plasma-derived antithrombin III is a glycoprotein having four asparagine-linked sugar chains, but these sugar chains are known not to have core α1,6-fucose (WO2005/035563). An immobilized amount of the ligand protein on the respective flow cells was set to the range of 2000 to 3000 resonance units (hereinafter referred to as “RU”). […]

[9] = molecular target: B1; experiment: SPR (Biacore T100), Protein S immobilised on C1 chip, CD14 as analyte
Protocol: Using an amine coupling kit, human plasma-derived Protein S, and recombinant human Protein S prepared in Example 3, MSPS were respectively immobilized at 700 to 800 RU on flow cells of a Series S C1 sensor chip (manufactured by Biacore). Then, the experiment was carried out in the same manner as in Example 5, using a recombinant human CD14 protein (manufactured by R&D systems) diluted to given concentrations (25000, 12500, 6250, 3125, and 1562 ng/mL) using HBS-EP+buffer (manufactured by Biacore), as an analyte.

Kd [1]: 240 nM | Kd [2]: 220 nM | Kd [3]: 230 nM
Molecule: anti-human Protein S antibody C-17 (manufactured by Santa Cruz)

Molecule: B1
Kd [4]: 92 nM | fold affinity for RAGE against human plasma Protein S [5]: ~7 fold

Molecule: B2
Kd [6]: 101 nM

Molecule: B3
Kd [7]: 81 nM

Molecule: B4
binding result [8]: no binding (tested: 50000 ng/mL)

Molecule: B5
binding result [9]: binds

Reference: patent US20100162418A1 (Kyowa Kirin, published 2010)
